Experimental data taken from patent US20050020492A1 (MERCK, published 2005).
Like-named read-outs stand apart in the source and are kept apart here. Positions of bridges follow the written chain, without caps; N, C: chain ends. Non-standard residues stand in square brackets, D forms with d. No end group written: not given here. Nle = CCCC[C@H](N)C(=O)O

B1: SEQ. ID. NO. 29 (D-Arg^6, Asn^10 analog of Ac-hMCH(6-16)-NH2) (peptide)
peptide: XCMLNRVYRPC
HELM: PEPTIDE1{[ac].[dR].C.M.L.N.R.V.Y.R.P.C.[am]}$PEPTIDE1,PEPTIDE1,3:R3-12:R3$$$V2.0
SMILES: CSCC[C@@H]1NC(=O)[C@@H](NC(=O)[C@@H](CCCNC(=N)N)NC(C)=O)CSSC[C@@H](C(N)=O)NC(=O)[C@@H]2CCCN2C(=O)[C@H](CCCNC(=N)N)NC(=O)[C@H](Cc2ccc(O)cc2)NC(=O)[C@H](C(C)C)NC(=O)[C@H](CCCNC(=N)N)NC(=O)[C@H](CC(N)=O)NC(=O)[C@H](CC(C)C)NC1=O
B2: SEQ. ID. NO. 33 (D-Arg^6, Asn^10, Ala^14 analog of Ac-hMCH(6-16)-NH2) (peptide)
peptide: XCMLNRVYAPC
HELM: PEPTIDE1{[ac].[dR].C.M.L.N.R.V.Y.A.P.C.[am]}$PEPTIDE1,PEPTIDE1,3:R3-12:R3$$$V2.0
SMILES: CSCC[C@@H]1NC(=O)[C@@H](NC(=O)[C@@H](CCCNC(=N)N)NC(C)=O)CSSC[C@@H](C(N)=O)NC(=O)[C@@H]2CCCN2C(=O)[C@H](C)NC(=O)[C@H](Cc2ccc(O)cc2)NC(=O)[C@H](C(C)C)NC(=O)[C@H](CCCNC(=N)N)NC(=O)[C@H](CC(N)=O)NC(=O)[C@H](CC(C)C)NC1=O
B3: SEQ. ID. NO. 30 (D-Arg^6, Gln^10 analog of Ac-hMCH(6-16)-NH2) (peptide)
peptide: XCMLQRVYRPC
HELM: PEPTIDE1{[ac].[dR].C.M.L.Q.R.V.Y.R.P.C.[am]}$PEPTIDE1,PEPTIDE1,3:R3-12:R3$$$V2.0
SMILES: CSCC[C@@H]1NC(=O)[C@@H](NC(=O)[C@@H](CCCNC(=N)N)NC(C)=O)CSSC[C@@H](C(N)=O)NC(=O)[C@@H]2CCCN2C(=O)[C@H](CCCNC(=N)N)NC(=O)[C@H](Cc2ccc(O)cc2)NC(=O)[C@H](C(C)C)NC(=O)[C@H](CCCNC(=N)N)NC(=O)[C@H](CCC(N)=O)NC(=O)[C@H](CC(C)C)NC1=O

What was measured:
human MCH-1R [1] = target: T1, human MCH-1R (human, UniProt Q99705 1-353); test: ratio of the two SPA IC50s
T1 sequence (Q99705 whole entry): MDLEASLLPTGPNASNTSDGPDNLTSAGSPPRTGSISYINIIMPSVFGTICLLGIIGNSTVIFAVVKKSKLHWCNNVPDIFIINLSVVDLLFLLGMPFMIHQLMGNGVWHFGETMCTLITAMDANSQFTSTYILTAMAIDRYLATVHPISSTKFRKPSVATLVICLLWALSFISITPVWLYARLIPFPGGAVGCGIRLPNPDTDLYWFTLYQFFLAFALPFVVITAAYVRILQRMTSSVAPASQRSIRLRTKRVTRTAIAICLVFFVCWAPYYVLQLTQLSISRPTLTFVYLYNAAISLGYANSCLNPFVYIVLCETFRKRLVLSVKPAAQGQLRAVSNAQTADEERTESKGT

human MCH-2R [2] = target: T2, human MCH-2R (human, UniProt Q969V1 1-340); test: cell-based or functional assay
T2 sequence (Q969V1 whole entry): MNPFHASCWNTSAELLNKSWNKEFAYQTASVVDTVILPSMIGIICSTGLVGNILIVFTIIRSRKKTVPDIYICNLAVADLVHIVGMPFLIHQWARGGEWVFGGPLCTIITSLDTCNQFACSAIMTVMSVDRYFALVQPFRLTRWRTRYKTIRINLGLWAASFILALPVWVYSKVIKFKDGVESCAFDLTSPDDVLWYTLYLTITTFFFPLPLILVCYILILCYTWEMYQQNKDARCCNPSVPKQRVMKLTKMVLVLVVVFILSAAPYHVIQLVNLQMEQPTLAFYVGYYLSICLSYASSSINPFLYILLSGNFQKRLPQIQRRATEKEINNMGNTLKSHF

human MCH-1R [3] = target: T1, human MCH-1R; test: cell-based or functional assay
human MCH-1R [4] = target: T1, human MCH-1R; test: SPA, displacement of [125I]-[Phe13,Tyr19]-hMCH, CHO/MCH-1R membranes
human MCH-2R [5] = target: T2, human MCH-2R; test: SPA, displacement of [125I]-[Phe13,Tyr19]-hMCH, MCH-2R membranes
human MCH-2R [6] = target: T2, human MCH-2R; test: cell-based or functional assay; remark: listed apart in the source
human MCH-1R [7] = target: T1, human MCH-1R; test: cell-based or functional assay; remark: listed apart in the source
human MCH-1R [8] = target: T1, human MCH-1R; test: SPA, displacement of [125I]-[Phe13,Tyr19]-hMCH, CHO/MCH-1R membranes
Procedure: (§1) After equilibrating at room temperature for 3 hours, the plates were read in a TopCount (Packard, Meriden, Conn.). IC₅₀ calculations were performed using Prism 3.0 (GraphPad. Software, San Diego, Calif.). The IC₅₀ values were measured in three different experiments.

human MCH-2R [9] = target: T2, human MCH-2R; test: SPA, displacement of [125I]-[Phe13,Tyr19]-hMCH, MCH-2R membranes
Procedure: as §1

human MCH-1R [10] = target: T1, human MCH-1R; test: ratio of the two SPA IC50s
Procedure: as §1

human MCH-1R [11] = target: T1, human MCH-1R; test: cell-based or functional assay; remark: listed apart in the source
human MCH-1R [12] = target: T1, human MCH-1R; test: SPA, displacement of [125I]-[Phe13,Tyr19]-hMCH, CHO/MCH-1R membranes; remark: listed apart in the source
Procedure: as §1

human MCH-2R [13] = target: T2, human MCH-2R; test: SPA, displacement of [125I]-[Phe13,Tyr19]-hMCH, MCH-2R membranes; remark: listed apart in the source
Procedure: as §1

human MCH-1R [14] = target: T1, human MCH-1R; test: cell-based or functional assay; remark: listed apart in the source
human MCH-1R [15] = target: T1, human MCH-1R; test: cell-based or functional assay; remark: listed apart in the source
human MCH-2R [16] = target: T2, human MCH-2R; test: SPA, displacement of [125I]-[Phe13,Tyr19]-hMCH, MCH-2R membranes; remark: listed apart in the source
Procedure: as §1

human MCH-1R [17] = target: T1, human MCH-1R; test: SPA, displacement of [125I]-[Phe13,Tyr19]-hMCH, CHO/MCH-1R membranes; remark: listed apart in the source
Procedure: as §1

human MCH-1R [18] = target: T1, human MCH-1R; test: ratio of the two SPA IC50s; remark: listed apart in the source
human MCH-2R [19] = target: T2, human MCH-2R; test: cell-based or functional assay; remark: listed apart in the source

Row | Binder | Activation %, aequorin bioluminescence (human MCH-2R [6]) [%] | EC50, aequorin bioluminescence (human MCH-2R [6]) [µM] | Activation %, aequorin bioluminescence (human MCH-1R [7]) [%] | EC50, aequorin bioluminescence (human MCH-1R [7]) [nM] | IC50 (human MCH-1R [8]) [nM] | IC50 (human MCH-2R [9]) [nM] | Activation %, aequorin bioluminescence (human MCH-1R [15]) [%] | EC50, aequorin bioluminescence (human MCH-1R [15]) [nM] | IC50 (human MCH-2R [16]) [nM] | IC50 (human MCH-1R [17]) [nM] | further results
1 | [dR]C[Nle]LNRVYRPC-NH2 (disulfide 2-11 (inferred)) [SEQ. ID. NO. 32 (ΔAc, D-Arg^6, Nle^8, Asn^10 analog of Ac-hMCH(6-16)-NH2)] | – | – | – | – | – | – | – | – | – | – | Selectivity 2/1 (MCH-2R/MCH-1R IC50 ratio) (human MCH-1R [1]): 890; Activation %, aequorin bioluminescence (human MCH-2R [2]): 53%; EC50, aequorin bioluminescence (human MCH-2R [2]): 1470 nM; Activation %, aequorin bioluminescence (human MCH-1R [3]): 130%; EC50, aequorin bioluminescence (human MCH-1R [3]): 350 nM; Selectivity 2/1 (MCH-2R/MCH-1R EC50 activity ratio) (human MCH-1R [3]): 4; IC50 (human MCH-1R [4]): 0.09 nM; IC50 (human MCH-2R [5]): 250 nM
2 | B1 | 20 | 8.4 | 120 | 55 | 0.5 | 3300 | – | – | – | – | Selectivity 2/1 (MCH-2R/MCH-1R EC50 activity ratio) (human MCH-1R [7]): 150 ratio; Selectivity 2/1 (MCH-2R/MCH-1R IC50 ratio) (human MCH-1R [10]): 6600 ratio; fold more selective as agonist for hMCH-1R than hMCH-2R (human MCH-1R [11]): ~150 fold
3 | B2 | 17 | > 10 | 109 | 260 | 3.2 | – | – | – | – | – | fold more selective with respect to hMCH-2R (human MCH-1R [11]): ~50 fold; fold weaker agonist than the parent compound (human MCH-1R [11]): 5 fold
4 | B3 | 11 | > 10 | 74 | 2300 | 6.1 | 1400 | – | – | – | – | Selectivity 2/1 (MCH-2R/MCH-1R IC50 ratio) (human MCH-1R [10]): 230 ratio; fold more selective as agonist for hMCH-1R than hMCH-2R (human MCH-1R [11]): ~150 fold
5 | Ac-RCMLGRVYRPC-NH2 (disulfide 2-11 (inferred), also called ID; NO; parent compound) [Ac-hMCH(6-16)-NH2] | – | – | 99 | 20 | 0.5 | 2 | 99 | 20 | 2 | 0.5 | IC50 (human MCH-1R [12]): 1.4 nM; IC50 (human MCH-2R [13]): 2 nM; Activation %, aequorin bioluminescence (human MCH-1R [14]): 99%; EC50, aequorin bioluminescence (human MCH-1R [14]): 20 nM
6 | Ac-RCMLLRVYRPC-NH2 (disulfide 2-11 (inferred)) [SEQ. ID. NO. 17 (Leu^10 analog of Ac-hMCH(6-16)-NH2)] | – | – | – | – | – | – | 123 | 32 | 27 | 0.03 | Selectivity 2/1 (MCH-2R/MCH-1R IC50 ratio) (human MCH-1R [18]): 1900 ratio; Activation %, aequorin bioluminescence (human MCH-2R [19]): 74%; EC50, aequorin bioluminescence (human MCH-2R [19]): 57 nM; Selectivity 2/1 (MCH-2R/MCH-1R EC50 activity ratio) (human MCH-1R [15]): 1.8 ratio
7 | Ac-RCMLARVYRPC-NH2 (disulfide 2-11 (inferred)) [SEQ. ID. NO. 16 (Ala^10 analog of Ac-hMCH(6-16)-NH2)] | – | – | – | – | – | – | 121 | 51 | 7 | 0.44 | Selectivity 2/1 (MCH-2R/MCH-1R IC50 ratio) (human MCH-1R [18]): 16 ratio; Activation %, aequorin bioluminescence (human MCH-2R [19]): 102%; EC50, aequorin bioluminescence (human MCH-2R [19]): 15 nM; Selectivity 2/1 (MCH-2R/MCH-1R EC50 activity ratio) (human MCH-1R [15]): 0.29 ratio
